Data reported in patent US9827216B2, “Nutritional support to prevent and/or mitigate bone marrow toxicity from a cancerous tumor” (Nestec S.A., priority 2008, dated 2017).

Assays:
[1] = tested on: red blood cell, white blood cell and immune cell populations; assay: Haematological evaluation and flow cytometric analysis, test diets with chemotherapy (Example 2); format: in vivo, mice
Protocol: The animals were distributed into 7 different group diets. There was a control group that received the diet AIN 93 for adult rodents (maintenance). Test diets were administered in doses appropriate to the animal model: (a) Ctrl diet were supplemented with 1% (w/w) L-arginine, (b) 25% of the protein was replaced by glutamine, (c) 1% (w/w) L-citrulline, (d) 1 g/Kg body weight with active hexose correlated compound, (e) 20 mg/day of RNA nucleotides and (f) 25 mg/day of lactoferrin. […] Control animals without chemotherapeutic treatment were run in parallel for all tested diets. Body weight was assessed every two days. Blood samples were obtained at day 2, 4 and 10 after the chemo-treatment and at sacrifice (14 or 28 days). An autopsy was performed and tumor mass was assessed.

immune cells = assay: Nutritional intervention on immune cells in tumor burdened animals with and without chemotherapy (FIG. 11); format: in vivo
Text: FIG. 11 illustrates a graph of the effect of nutritional intervention on immune cells in tumor burdened animals with and without chemotherapy in accordance with an embodiment of the present disclosure.

B1: lactoferrin: diet with 25 mg/day of lactoferrin (protein, UniProt P24627 20-708, looked up)
Lactotransferrin: APRKNVRWCTISQPEWFKCRRWQWRMKKLGAPSITCVRRAFALECIRAIAEKKADAVTLDGGMVFEAGRDPYKLRPVAAEIYGTKESPQTHYYAVAVVKKGSNFQLDQLQGRKSCHTGLGRSAGWIIPMGILRPYLSWTESLEPLQGAVAKFFSASCVPCIDRQAYPNLCQLCKGEGENQCACSSREPYFGYSGAFKCLQDGAGDVAFVKETTVFENLPEKADRDQYELLCLNNSRAPVDAFKECHLAQVPSHAVVARSVDGKEDLIWKLLSKAQEKFGKNKSRSFQLFGSPPGQRDLLFKDSALGFLRIPSKVDSALYLGSRYLTTLKNLRETAEEVKARYTRVVWCAVGPEEQKKCQQWSQQSGQNVTCATASTTDDCIVLVLKGEADALNLDGGYIYTAGKCGLVPVLAENRKSSKHSSLDCVLRPTEGYLAVAVVKKANEGLTWNSLKDKKSCHTAVDRTAGWNIPMGLIVNQTGSCAFDEFFSQSCAPGADPKSRLCALCAGDDQGLDKCVPNSKEKYYGYTGAFRCLAEDVGDVAFVKNDTVWENTNGESTADWAKNLNREDFRLLCLDGTRKPVTEAQSCHLAVAPNHAVVSRSDRAAHVKQVLLHQQALFGKNGKNCPDKFCLFKSETKNLLFNDNTECLAKLGGRPTYEEYLGTEYVTAIANLKKCSTSPLLEACAFLTR
- Global lymphocyte population ([1]; following chemotherapy, supplemented diets): less depressed
- leukocytic increase (white blood cell counts) ([1]; oxaliplatin treated animals, supplemented diet 25 mg/day): tended to be higher
- toxicity (immune cells) (immune cells; chemotherapy treated group as compared to the control (FIG. 11)): less toxicity
- immune cell population / concentration (immune cells; during the second phase (tumor-induced toxicity)): increase in their immune cell population
